Target: FGFR3 (UniProt P22607)
Experiment: phosphorylation enrichment, bacterial display (enrichment ratio); higher = better substrate or ligand; peptides without Tyr show the background
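Further: 11-residue human phosphosite peptides and single-mutation variants displayed on the E. coli surface, counted by deep sequencing, each peptide's frequency after selection divided by its frequency in the unselected input library; frequency after pTyr selection over input frequency; kinase dosed for 20-30% of maximal phosphorylation in three min.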

Chain of FGFR3 (P22607 whole entry, looked up): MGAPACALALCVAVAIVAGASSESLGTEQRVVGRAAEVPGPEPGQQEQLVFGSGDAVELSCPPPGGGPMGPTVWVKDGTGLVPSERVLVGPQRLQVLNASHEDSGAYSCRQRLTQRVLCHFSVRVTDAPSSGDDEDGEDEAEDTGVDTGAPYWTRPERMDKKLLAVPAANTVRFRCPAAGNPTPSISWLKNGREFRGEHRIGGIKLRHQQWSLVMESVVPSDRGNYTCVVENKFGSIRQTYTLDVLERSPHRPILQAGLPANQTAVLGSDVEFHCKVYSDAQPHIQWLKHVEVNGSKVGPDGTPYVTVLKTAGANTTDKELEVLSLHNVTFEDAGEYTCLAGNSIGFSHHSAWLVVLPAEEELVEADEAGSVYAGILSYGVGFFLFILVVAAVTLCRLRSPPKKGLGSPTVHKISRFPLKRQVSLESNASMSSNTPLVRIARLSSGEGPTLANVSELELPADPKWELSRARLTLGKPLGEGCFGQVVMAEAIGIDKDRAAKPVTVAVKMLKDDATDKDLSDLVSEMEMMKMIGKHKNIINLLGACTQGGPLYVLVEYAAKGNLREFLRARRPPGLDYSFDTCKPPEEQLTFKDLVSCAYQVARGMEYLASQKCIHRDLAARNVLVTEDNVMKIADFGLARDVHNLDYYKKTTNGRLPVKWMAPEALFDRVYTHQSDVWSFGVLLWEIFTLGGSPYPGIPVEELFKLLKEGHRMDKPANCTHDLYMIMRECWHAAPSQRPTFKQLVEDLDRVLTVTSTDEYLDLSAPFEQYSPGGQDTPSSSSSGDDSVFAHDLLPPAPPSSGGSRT

| Sequence | phosphorylation enrichment |
| --- | --- |
| RSAGKYDVYLI [MECP2_Y120] | 0.717 |
| AAALAYGLDKS [HSPA9_Y230] | 0.477 |
| SDQRRYSLIDP [CLIP2_Y972_R977P] | 0.64 |
| CHSDDYVHISI [TSC1_Y406_L411I] | 1.29 |
| LARNMYDKEFF [MET_Y1230_D1228N_YF] | 0.62 |
| SRFQFYFQQKG [CHKB_Y381] | 1.02 |
| AAVNGYAFGGG [ECHS1_Y137] | 0.406 |
| SEELHYYVQNH [UQCRC2_Y207_F208Y] | 4.09 |
| SVTCAYSPALN [TP53_Y126_T125A] | 0.757 |
| TLSGIYQYSIA [FOXL2_Y81_I84S] | 1.03 |
| CTTIHYNYKCN [TP53_Y234_M237K] | 0.566 |
| TDLAYYLVREG [ASL_Y376_K380E] | 7.06 |
| RGFRQDAFDGK [HLA-A_Y140_YF] | 0.73 |
| DSMQSYDLDYP [UNC13B_Y243] | 0.673 |
| GTYVIYVRFSG [FLNB_Y1687_G1691S] | 0.828 |
| VSTKVYKRFPS [BEST1_Y148_A146K] | 0.305 |
| KKHIPCREHKS [CSNK1G2_Y206_Y206C] | 3.13 |

| Sequence | phosphorylation enrichment |
| --- | --- |
| QKFMAYLSQGW [HLCS_Y236_G241W] | 1.14 |
| HSYNSYTYPRL [PAK5_Y316] | 0.532 |
| YGSSSYGGAGG [RPA2_Y14] | 0.409 |
| DEDFLYREELA [POR_Y575_YF] | 0.725 |
| SEKIVYGHLDD [ACO2_Y71] | 0.573 |
| MPVDGYISGLL [PAK6_Y81] | 0.626 |
| REGAKYVSHCA [ASS1_Y113_G117C] | 0.445 |
| CDKEFYSVHNK [MET_Y1235_Y1230C_YF] | 0.606 |
| IFHLSYHHNCE [PDE6B_Y227_L228H_YF] | 0.694 |
| LPQDGYRIVQH [PTPRT_Y1329_R1324L] | 0.55 |
| LYYYSYLLKNH [PTEN_Y180_V175L] | 3.79 |
| YPSLPYSPVSS [CAMKK2_Y128_C123Y] | 0.721 |
| YDRREYSRFEK [ITGB7_Y758] | 0.554 |
| CGSLLYGLVHQ [PRKCG_Y122] | 0.663 |
| VECQVYAEDPY [PCCA_Y401_R399Q] | 1.12 |
| HRNNNYEPNLF [BRCA2_Y57_K53R] | 0.662 |

System: Fer (mouse)
Experiment: as above

| Sequence | phosphorylation enrichment |
| --- | --- |
| RSAGKYDVYLI [MECP2_Y120] | 0.555 |
| AAALAYGLDKS [HSPA9_Y230] | 0.467 |
| SDQRRYSLIDP [CLIP2_Y972_R977P] | 0.545 |
| CHSDDYVHISI [TSC1_Y406_L411I] | 0.597 |
| LARNMYDKEFF [MET_Y1230_D1228N_YF] | 0.541 |
| SRFQFYFQQKG [CHKB_Y381] | 0.597 |
| AAVNGYAFGGG [ECHS1_Y137] | 0.473 |
| SEELHYYVQNH [UQCRC2_Y207_F208Y] | 0.954 |
| SVTCAYSPALN [TP53_Y126_T125A] | 0.64 |
| TLSGIYQYSIA [FOXL2_Y81_I84S] | 8.33 |
| CTTIHYNYKCN [TP53_Y234_M237K] | 0.408 |
| TDLAYYLVREG [ASL_Y376_K380E] | 0.466 |
| RGFRQDAFDGK [HLA-A_Y140_YF] | 0.487 |
| DSMQSYDLDYP [UNC13B_Y243] | 0.451 |
| GTYVIYVRFSG [FLNB_Y1687_G1691S] | 0.639 |
| VSTKVYKRFPS [BEST1_Y148_A146K] | 0.422 |
| KKHIPCREHKS [CSNK1G2_Y206_Y206C] | 1.66 |

| Sequence | phosphorylation enrichment |
| --- | --- |
| QKFMAYLSQGW [HLCS_Y236_G241W] | 0.86 |
| HSYNSYTYPRL [PAK5_Y316] | 0.554 |
| YGSSSYGGAGG [RPA2_Y14] | 0.381 |
| DEDFLYREELA [POR_Y575_YF] | 0.544 |
| SEKIVYGHLDD [ACO2_Y71] | 0.505 |
| MPVDGYISGLL [PAK6_Y81] | 0.522 |
| REGAKYVSHCA [ASS1_Y113_G117C] | 0.633 |
| CDKEFYSVHNK [MET_Y1235_Y1230C_YF] | 0.405 |
| IFHLSYHHNCE [PDE6B_Y227_L228H_YF] | 0.517 |
| LPQDGYRIVQH [PTPRT_Y1329_R1324L] | 0.408 |
| LYYYSYLLKNH [PTEN_Y180_V175L] | 0.959 |
| YPSLPYSPVSS [CAMKK2_Y128_C123Y] | 3.13 |
| YDRREYSRFEK [ITGB7_Y758] | 0.545 |
| CGSLLYGLVHQ [PRKCG_Y122] | 12.9 |
| VECQVYAEDPY [PCCA_Y401_R399Q] | 0.846 |
| HRNNNYEPNLF [BRCA2_Y57_K53R] | 0.552 |

Target: Fes (UniProt P07332)
Sequence (P07332 whole entry, looked up): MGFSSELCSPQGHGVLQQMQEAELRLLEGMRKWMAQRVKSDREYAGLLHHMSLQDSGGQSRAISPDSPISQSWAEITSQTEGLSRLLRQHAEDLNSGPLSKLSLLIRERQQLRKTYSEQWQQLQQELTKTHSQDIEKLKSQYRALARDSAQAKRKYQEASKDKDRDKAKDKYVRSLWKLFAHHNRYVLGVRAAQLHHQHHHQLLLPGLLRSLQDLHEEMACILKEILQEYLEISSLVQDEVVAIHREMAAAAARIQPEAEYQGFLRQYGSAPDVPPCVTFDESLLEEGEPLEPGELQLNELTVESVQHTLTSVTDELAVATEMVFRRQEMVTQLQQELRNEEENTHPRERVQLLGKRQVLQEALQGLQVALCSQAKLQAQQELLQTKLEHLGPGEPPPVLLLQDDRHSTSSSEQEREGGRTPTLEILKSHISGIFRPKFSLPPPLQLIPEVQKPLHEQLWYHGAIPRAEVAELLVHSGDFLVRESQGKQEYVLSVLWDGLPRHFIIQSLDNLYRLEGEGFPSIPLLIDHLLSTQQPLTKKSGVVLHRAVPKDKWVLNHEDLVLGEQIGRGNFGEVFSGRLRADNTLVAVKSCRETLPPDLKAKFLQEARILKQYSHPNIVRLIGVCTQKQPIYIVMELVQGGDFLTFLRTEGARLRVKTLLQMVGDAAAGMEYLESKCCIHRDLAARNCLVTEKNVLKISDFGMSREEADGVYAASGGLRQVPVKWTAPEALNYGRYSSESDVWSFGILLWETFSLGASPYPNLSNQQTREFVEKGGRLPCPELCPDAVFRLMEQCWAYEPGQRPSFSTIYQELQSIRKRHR
Experiment: as above

| Sequence | phosphorylation enrichment |
| --- | --- |
| RSAGKYDVYLI [MECP2_Y120] | 1.06 |
| AAALAYGLDKS [HSPA9_Y230] | 1.12 |
| SDQRRYSLIDP [CLIP2_Y972_R977P] | 0.719 |
| CHSDDYVHISI [TSC1_Y406_L411I] | 1.39 |
| LARNMYDKEFF [MET_Y1230_D1228N_YF] | 1.01 |
| SRFQFYFQQKG [CHKB_Y381] | 1.56 |
| AAVNGYAFGGG [ECHS1_Y137] | 0.553 |
| SEELHYYVQNH [UQCRC2_Y207_F208Y] | 1.62 |
| SVTCAYSPALN [TP53_Y126_T125A] | 1.2 |
| TLSGIYQYSIA [FOXL2_Y81_I84S] | 0.899 |
| CTTIHYNYKCN [TP53_Y234_M237K] | 0.878 |
| TDLAYYLVREG [ASL_Y376_K380E] | 0.905 |
| RGFRQDAFDGK [HLA-A_Y140_YF] | 0.633 |
| DSMQSYDLDYP [UNC13B_Y243] | 0.946 |
| GTYVIYVRFSG [FLNB_Y1687_G1691S] | 1.3 |
| VSTKVYKRFPS [BEST1_Y148_A146K] | 0.605 |
| KKHIPCREHKS [CSNK1G2_Y206_Y206C] | 2.35 |

| Sequence | phosphorylation enrichment |
| --- | --- |
| QKFMAYLSQGW [HLCS_Y236_G241W] | 1.32 |
| HSYNSYTYPRL [PAK5_Y316] | 0.682 |
| YGSSSYGGAGG [RPA2_Y14] | 0.626 |
| DEDFLYREELA [POR_Y575_YF] | 1.21 |
| SEKIVYGHLDD [ACO2_Y71] | 1 |
| MPVDGYISGLL [PAK6_Y81] | 0.953 |
| REGAKYVSHCA [ASS1_Y113_G117C] | 0.86 |
| CDKEFYSVHNK [MET_Y1235_Y1230C_YF] | 0.827 |
| IFHLSYHHNCE [PDE6B_Y227_L228H_YF] | 1.18 |
| LPQDGYRIVQH [PTPRT_Y1329_R1324L] | 0.809 |
| LYYYSYLLKNH [PTEN_Y180_V175L] | 1.3 |
| YPSLPYSPVSS [CAMKK2_Y128_C123Y] | 0.683 |
| YDRREYSRFEK [ITGB7_Y758] | 0.957 |
| CGSLLYGLVHQ [PRKCG_Y122] | 1.2 |
| VECQVYAEDPY [PCCA_Y401_R399Q] | 1.65 |
| HRNNNYEPNLF [BRCA2_Y57_K53R] | 0.75 |

Target: Fyn (UniProt P06241)
Sequence (P06241 whole entry, looked up): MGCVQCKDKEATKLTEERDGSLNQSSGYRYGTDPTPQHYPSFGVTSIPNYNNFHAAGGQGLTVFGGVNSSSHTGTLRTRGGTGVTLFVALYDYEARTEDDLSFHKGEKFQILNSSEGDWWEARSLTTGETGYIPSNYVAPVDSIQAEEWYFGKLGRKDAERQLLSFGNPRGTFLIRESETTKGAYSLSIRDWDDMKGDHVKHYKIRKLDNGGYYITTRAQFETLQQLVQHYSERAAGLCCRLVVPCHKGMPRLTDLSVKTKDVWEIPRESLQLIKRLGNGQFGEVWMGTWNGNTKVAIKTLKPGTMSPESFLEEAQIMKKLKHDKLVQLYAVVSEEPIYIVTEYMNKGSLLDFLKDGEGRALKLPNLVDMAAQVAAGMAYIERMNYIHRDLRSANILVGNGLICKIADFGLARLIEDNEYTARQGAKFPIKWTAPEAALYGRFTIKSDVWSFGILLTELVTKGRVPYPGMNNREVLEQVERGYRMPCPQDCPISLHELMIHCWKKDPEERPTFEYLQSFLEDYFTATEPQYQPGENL
Experiment: as above

| Sequence | phosphorylation enrichment |
| --- | --- |
| RSAGKYDVYLI [MECP2_Y120] | 1.31 |
| AAALAYGLDKS [HSPA9_Y230] | 0.388 |
| SDQRRYSLIDP [CLIP2_Y972_R977P] | 0.574 |
| CHSDDYVHISI [TSC1_Y406_L411I] | 0.532 |
| LARNMYDKEFF [MET_Y1230_D1228N_YF] | 0.529 |
| SRFQFYFQQKG [CHKB_Y381] | 0.48 |
| AAVNGYAFGGG [ECHS1_Y137] | 0.423 |
| SEELHYYVQNH [UQCRC2_Y207_F208Y] | 0.633 |
| SVTCAYSPALN [TP53_Y126_T125A] | 0.616 |
| TLSGIYQYSIA [FOXL2_Y81_I84S] | 4.22 |
| CTTIHYNYKCN [TP53_Y234_M237K] | 0.454 |
| TDLAYYLVREG [ASL_Y376_K380E] | 0.734 |
| RGFRQDAFDGK [HLA-A_Y140_YF] | 0.414 |
| DSMQSYDLDYP [UNC13B_Y243] | 0.466 |
| GTYVIYVRFSG [FLNB_Y1687_G1691S] | 0.509 |
| VSTKVYKRFPS [BEST1_Y148_A146K] | 0.366 |
| KKHIPCREHKS [CSNK1G2_Y206_Y206C] | 0.667 |

| Sequence | phosphorylation enrichment |
| --- | --- |
| QKFMAYLSQGW [HLCS_Y236_G241W] | 0.639 |
| HSYNSYTYPRL [PAK5_Y316] | 0.449 |
| YGSSSYGGAGG [RPA2_Y14] | 0.414 |
| DEDFLYREELA [POR_Y575_YF] | 0.443 |
| SEKIVYGHLDD [ACO2_Y71] | 0.817 |
| MPVDGYISGLL [PAK6_Y81] | 0.524 |
| REGAKYVSHCA [ASS1_Y113_G117C] | 0.822 |
| CDKEFYSVHNK [MET_Y1235_Y1230C_YF] | 0.504 |
| IFHLSYHHNCE [PDE6B_Y227_L228H_YF] | 0.522 |
| LPQDGYRIVQH [PTPRT_Y1329_R1324L] | 0.43 |
| LYYYSYLLKNH [PTEN_Y180_V175L] | 0.946 |
| YPSLPYSPVSS [CAMKK2_Y128_C123Y] | 0.458 |
| YDRREYSRFEK [ITGB7_Y758] | 0.498 |
| CGSLLYGLVHQ [PRKCG_Y122] | 5.73 |
| VECQVYAEDPY [PCCA_Y401_R399Q] | 0.765 |
| HRNNNYEPNLF [BRCA2_Y57_K53R] | 0.583 |

— the supplement of paper PMC10065799, “High-throughput profiling of sequence recognition by tyrosine kinases and SH2 domains using bacterial peptide display” (eLife, 2023)
